Molecular target: GST-OGG1 wt (UniProt O15527 1-345)
Assay: EMSA

GST-OGG1 wt, sequence (O15527 whole entry): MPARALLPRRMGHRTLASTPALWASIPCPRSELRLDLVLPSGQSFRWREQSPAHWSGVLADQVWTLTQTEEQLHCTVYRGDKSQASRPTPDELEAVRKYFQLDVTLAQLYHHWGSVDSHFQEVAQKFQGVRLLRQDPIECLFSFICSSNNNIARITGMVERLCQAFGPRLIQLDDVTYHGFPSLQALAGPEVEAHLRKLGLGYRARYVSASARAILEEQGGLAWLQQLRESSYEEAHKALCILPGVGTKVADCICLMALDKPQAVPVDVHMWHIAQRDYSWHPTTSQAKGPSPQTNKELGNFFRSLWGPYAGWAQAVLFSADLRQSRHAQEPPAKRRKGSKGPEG

Binder	binding result
Cy5 probe (8-oxoG) (dsDNA, 8-oxoG at position 16 of strand 1) DNA 1: AGAGAAGAAGAAGAAGAGATGGGTTATTCGAACTAGC DNA 2: GCTAGTTCGAATAACCCATCTCTTCTTCTTCTTCTCT	binds
G2 probe (8-oxoG) (dsDNA, 8-oxoG at position 27 of strand 1 (antisense)) DNA 1: CGATGTCTGGAAAAGCCCGGGGACCAGGGAA DNA 2: TTCCCTGGTCCCCGGGCTTTTCCAGACATCG	binds

Reference: PMC7318607
